Assay results from US20200121803A1 (published 2020).

T1: human CD98, endogenously expressed on Molt-4 human acute lymphoblastic leukemia cells (human)
T1 chain: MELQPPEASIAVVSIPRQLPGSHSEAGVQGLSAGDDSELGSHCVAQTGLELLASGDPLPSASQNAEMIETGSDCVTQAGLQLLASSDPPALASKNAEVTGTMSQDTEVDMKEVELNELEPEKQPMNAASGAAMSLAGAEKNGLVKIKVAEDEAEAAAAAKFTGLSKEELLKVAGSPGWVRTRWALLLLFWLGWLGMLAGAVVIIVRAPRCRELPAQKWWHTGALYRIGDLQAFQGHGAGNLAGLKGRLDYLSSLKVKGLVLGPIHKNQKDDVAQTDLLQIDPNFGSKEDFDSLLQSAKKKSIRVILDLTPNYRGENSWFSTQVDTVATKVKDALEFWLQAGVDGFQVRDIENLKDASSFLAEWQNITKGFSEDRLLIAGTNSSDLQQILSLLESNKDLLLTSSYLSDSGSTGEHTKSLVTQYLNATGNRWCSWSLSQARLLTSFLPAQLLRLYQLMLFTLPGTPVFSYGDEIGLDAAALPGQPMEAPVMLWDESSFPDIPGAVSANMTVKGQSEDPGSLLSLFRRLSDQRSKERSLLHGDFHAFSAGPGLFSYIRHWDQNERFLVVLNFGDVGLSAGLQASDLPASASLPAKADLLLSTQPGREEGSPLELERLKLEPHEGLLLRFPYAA


Molecular target: T1, human CD98, endogenously expressed on …
Experiment: cell-based or functional assay

| Binder | % Cell Viability at 50 nM [%] | Molt4 IC50 [nM] |
| --- | --- | --- |
| CD98 (CL-huAb110)-CZ (antibody, human IgG1, kappa, L234A L235A, V domains shown, synthon CZ on reduced interchain cysteines (sites not given)) VH: EVQLVQSGAEVKKPGASVKVSCKASGFTFSDYTMAWVRQAPGQGLEWVATIIYDARGTYYRDAVKGRFTITRDNSTSTLYLELSSLRSEDTAVYYCARQSDDTYYYWGYFDYWGQGTMVTVSS VL: DIVMTQTPLSLPVTPGEPASINCKSSQSLLFSGNQKNYLAWYLQKPGQSPQLLIYWASTRQSGVPDRFSGSGSGTDFTLKISRVEAEDVGIYYCQQYYSSPYTFGQGTKLEIKR | 0.8 | 0.064 |
| CD98 (CL-huAb102)-AAA (antibody, human IgG1, kappa, L234A L235A, V domains shown, synthon AAA on reduced interchain cysteines (sites not given)) VH: EVQLVESGGGLVQPGGSLRLSCATSGFTFIDYYMSWVRQAPGKGLEWLGFIRNKANRYTTEYSASVKGRFTISRDNSKSILYLQMNSLKTEDTAVYYCTRDRPAWFVYWGQGTLVTVSS VL: DIVMTQTPLSLPVTPGEPASISCKSSQSLLYSSNQKNYLAWYLQKPGQSPQLLIYWASTRESGVPDRFSGSGSGTDFTLKISRVEAEDVGVYYCQQYYSYPYTFGGGTKVEIKR | 2.4 | 0.05 |
| CD98 (CL-huAb102)-TX (antibody, human IgG1, kappa, L234A L235A, V domains shown, synthon TX on reduced interchain cysteines (sites not given)) VH: EVQLVESGGGLVQPGGSLRLSCATSGFTFIDYYMSWVRQAPGKGLEWLGFIRNKANRYTTEYSASVKGRFTISRDNSKSILYLQMNSLKTEDTAVYYCTRDRPAWFVYWGQGTLVTVSS VL: DIVMTQTPLSLPVTPGEPASISCKSSQSLLYSSNQKNYLAWYLQKPGQSPQLLIYWASTRESGVPDRFSGSGSGTDFTLKISRVEAEDVGVYYCQQYYSYPYTFGGGTKVEIKR | 2.8 | 0.05 |
| CD98 (CL-huAb110)-TX (antibody, human IgG1, kappa, L234A L235A, V domains shown, synthon TX on reduced interchain cysteines (sites not given)) VH: EVQLVQSGAEVKKPGASVKVSCKASGFTFSDYTMAWVRQAPGQGLEWVATIIYDARGTYYRDAVKGRFTITRDNSTSTLYLELSSLRSEDTAVYYCARQSDDTYYYWGYFDYWGQGTMVTVSS VL: DIVMTQTPLSLPVTPGEPASINCKSSQSLLFSGNQKNYLAWYLQKPGQSPQLLIYWASTRQSGVPDRFSGSGSGTDFTLKISRVEAEDVGIYYCQQYYSSPYTFGQGTKLEIKR | 2.5 | 0.14 |
| CD98 (CL-huAb102)-YY (antibody, human IgG1, kappa, L234A L235A, V domains shown, synthon YY on reduced interchain cysteines (sites not given)) VH: EVQLVESGGGLVQPGGSLRLSCATSGFTFIDYYMSWVRQAPGKGLEWLGFIRNKANRYTTEYSASVKGRFTISRDNSKSILYLQMNSLKTEDTAVYYCTRDRPAWFVYWGQGTLVTVSS VL: DIVMTQTPLSLPVTPGEPASISCKSSQSLLYSSNQKNYLAWYLQKPGQSPQLLIYWASTRESGVPDRFSGSGSGTDFTLKISRVEAEDVGVYYCQQYYSYPYTFGGGTKVEIKR | 3.1 | 0.05 |
| CD98 (CL-huAb108)-TX (antibody, human IgG1, kappa, L234A L235A, V domains shown, synthon TX on reduced interchain cysteines (sites not given)) VH: EVQLVQSGAEVKKPGASVKVSCKASGFTFSDYTMAWVRQAPGQGLEWVATIIYSGRGTYYRDAVKGRFTITRDNSTSTLYLELSSLRSEDTAVYYCARQSDDTYYYWGYFDYWGQGTMVTVSS VL: DIVMTQTPLSLPVTPGEPASINCKSSQSLLFSGNQKNYLAWYLQKPGQSPQLLIYWASTRQSGVPDRFSGSGSGTDFTLKISRVEAEDVGIYYCQQYYDVPYTFGQGTKLEIKR | 3 | 0.15 |
| CD98 (CL-huAb110)-TV (antibody, human IgG1, kappa, L234A L235A, V domains shown, synthon TV on reduced interchain cysteines (sites not given)) VH: EVQLVQSGAEVKKPGASVKVSCKASGFTFSDYTMAWVRQAPGQGLEWVATIIYDARGTYYRDAVKGRFTITRDNSTSTLYLELSSLRSEDTAVYYCARQSDDTYYYWGYFDYWGQGTMVTVSS VL: DIVMTQTPLSLPVTPGEPASINCKSSQSLLFSGNQKNYLAWYLQKPGQSPQLLIYWASTRQSGVPDRFSGSGSGTDFTLKISRVEAEDVGIYYCQQYYSSPYTFGQGTKLEIKR | 1 | 0.09 |
| CD98 (CL-huAb102)-TV (antibody, human IgG1, kappa, L234A L235A, V domains shown, synthon TV on reduced interchain cysteines (sites not given)) VH: EVQLVESGGGLVQPGGSLRLSCATSGFTFIDYYMSWVRQAPGKGLEWLGFIRNKANRYTTEYSASVKGRFTISRDNSKSILYLQMNSLKTEDTAVYYCTRDRPAWFVYWGQGTLVTVSS VL: DIVMTQTPLSLPVTPGEPASISCKSSQSLLYSSNQKNYLAWYLQKPGQSPQLLIYWASTRESGVPDRFSGSGSGTDFTLKISRVEAEDVGVYYCQQYYSYPYTFGGGTKVEIKR | 1.5 | 0.02 |
| CD98 (CL-huAb104)-TV (antibody, human IgG1, kappa, L234A L235A, V domains shown, synthon TV on reduced interchain cysteines (sites not given)) VH: EVQLVESGGGLVQPGGSLRLSCATSGFTFIDYYMSWVRQAPGKGLEWLGFIRNKAYGYTTEYSASVKGRFTISRDNSKSILYLQMNSLKTEDTAVYYCTRDRPAWFVYWGQGTLVTVSS VL: DIVMTQTPLSLPVTPGEPASISCKSSQSLLYSSNQKNYLAWYLQKPGQSPQLLIYWASTRESGVPDRFSGSGSGTDFTLKISRVEAEDVGVYYCQQYYSYPYTFGGGTKVEIKR | 1.4 | 0.03 |
| CD98 (CL-huAb108)-YY (antibody, human IgG1, kappa, L234A L235A, V domains shown, synthon YY on reduced interchain cysteines (sites not given)) VH: EVQLVQSGAEVKKPGASVKVSCKASGFTFSDYTMAWVRQAPGQGLEWVATIIYSGRGTYYRDAVKGRFTITRDNSTSTLYLELSSLRSEDTAVYYCARQSDDTYYYWGYFDYWGQGTMVTVSS VL: DIVMTQTPLSLPVTPGEPASINCKSSQSLLFSGNQKNYLAWYLQKPGQSPQLLIYWASTRQSGVPDRFSGSGSGTDFTLKISRVEAEDVGIYYCQQYYDVPYTFGQGTKLEIKR | 2.9 | 0.14 |
| CD98 (CL-huAb110)-YY (antibody, human IgG1, kappa, L234A L235A, V domains shown, synthon YY on reduced interchain cysteines (sites not given)) VH: EVQLVQSGAEVKKPGASVKVSCKASGFTFSDYTMAWVRQAPGQGLEWVATIIYDARGTYYRDAVKGRFTITRDNSTSTLYLELSSLRSEDTAVYYCARQSDDTYYYWGYFDYWGQGTMVTVSS VL: DIVMTQTPLSLPVTPGEPASINCKSSQSLLFSGNQKNYLAWYLQKPGQSPQLLIYWASTRQSGVPDRFSGSGSGTDFTLKISRVEAEDVGIYYCQQYYSSPYTFGQGTKLEIKR | 1.9 | 0.13 |
| CD98 (CL-huAb104)-YY (antibody, human IgG1, kappa, L234A L235A, V domains shown, synthon YY on reduced interchain cysteines (sites not given)) VH: EVQLVESGGGLVQPGGSLRLSCATSGFTFIDYYMSWVRQAPGKGLEWLGFIRNKAYGYTTEYSASVKGRFTISRDNSKSILYLQMNSLKTEDTAVYYCTRDRPAWFVYWGQGTLVTVSS VL: DIVMTQTPLSLPVTPGEPASISCKSSQSLLYSSNQKNYLAWYLQKPGQSPQLLIYWASTRESGVPDRFSGSGSGTDFTLKISRVEAEDVGVYYCQQYYSYPYTFGGGTKVEIKR | 2.7 | 0.03 |
| CD98 (CL-huAb108)-TV (antibody, human IgG1, kappa, L234A L235A, V domains shown, synthon TV on reduced interchain cysteines (sites not given)) VH: EVQLVQSGAEVKKPGASVKVSCKASGFTFSDYTMAWVRQAPGQGLEWVATIIYSGRGTYYRDAVKGRFTITRDNSTSTLYLELSSLRSEDTAVYYCARQSDDTYYYWGYFDYWGQGTMVTVSS VL: DIVMTQTPLSLPVTPGEPASINCKSSQSLLFSGNQKNYLAWYLQKPGQSPQLLIYWASTRQSGVPDRFSGSGSGTDFTLKISRVEAEDVGIYYCQQYYDVPYTFGQGTKLEIKR | 1.1 | 0.08 |
| CD98 (CL-huAb104)-TX (antibody, human IgG1, kappa, L234A L235A, V domains shown, synthon TX on reduced interchain cysteines (sites not given)) VH: EVQLVESGGGLVQPGGSLRLSCATSGFTFIDYYMSWVRQAPGKGLEWLGFIRNKAYGYTTEYSASVKGRFTISRDNSKSILYLQMNSLKTEDTAVYYCTRDRPAWFVYWGQGTLVTVSS VL: DIVMTQTPLSLPVTPGEPASISCKSSQSLLYSSNQKNYLAWYLQKPGQSPQLLIYWASTRESGVPDRFSGSGSGTDFTLKISRVEAEDVGVYYCQQYYSYPYTFGGGTKVEIKR | 4.3 | 0.06 |
